Laboratory results published in patent US9915657B2, “Lateral flow device for diagnosing microbial infections” (THE JOHNS HOPKINS UNIVERSITY, priority 2009, dated 2018).

B1: MAb 838: IgMκ monoclonal antibody to galactofuranose-containing GM; VH SEQ ID NO:7, VL SEQ ID NO:8 (antibody, listed as Mus musculus, V domains shown)
VH: EVQLEESLRLSCATSGFTFSDFYMEWVRQPPGKRLEWIAASRNKANDYTTEYSASVKGRFFVSRDTSQSILYLQMNALRAEDTAIYYCARDVMITTGDWYFDVWGAGTTVTVSS
VL: DILMTQSQKFMSTSVGDRVSVTCKASQNVGTNVAWYQQKPGQSPKALIYSASYQYSGVPDRFTGSGSGTDFTLTISNVQSEDLAEYFCQQFNSYHVRLGDKVGIKT
modifications: (1)..(342) 838.9.4 VH (B4B); (1)..(318) 838.9.4. VL (p6)

Assays:
[1] = rabbit model; within 24 hours of intravenous injection; cited from earlier work
[2] = Competition ELISA, relative affinities of GM-binding MAbs; parameters: species or system Aspergillus fumigatus
Description: FIG. 9 is a graph showing the relative affinities of GM-binding MAbs. Measurements were made by competition ELISA using soluble ethanol-precipitated culture filtrate. Percent of maximal binding is shown;
The relative affinities of the GM-binding MAbs were determined by competition ELISA. […] The % of maximal binding is shown in (FIG. 9). […] These values are similar to those reported for other polysaccharide-binding MAbs.
Competition ELISAs were done using each combination of the MAb pairs to confirm that the MAbs were binding to the same epitope and their relative avidities for GM. Biotinylation of the second MAb allowed the use of alkaline phosphatase-conjugated streptavidin for detection and was done by linkage of anion exchange-purified MAbs to sulfo-NHS-LC biotin. Competition among each of the MAb pairs was observed, supporting binding to similar epitopes or the presence of steric hindrance. […] The MAb 838-producing hybridoma manufactures relatively low concentrations of MAb, making use of this cell line difficult.

Row | Molecule | GM excreted in the urine [1] | Kd ([2]; calculated from competition ELISA, read-out: dissociation constant (Kd)) | affinity for GM, higher than the other three MAbs ([2]; competition ELISA) | concentration required for competition, lower than for the other MAbs ([2]; competition ELISA between MAb pairs)
1 | Galactomannan [GM] | 35% | – | – | –
2 | B1 | – | 100 nM | approximately 10 fold | approximately 10 fold
